Among the data in patent US20070292490A1 are clot time in prothrombin time (PT) assay, human plasma, 10 nM lipidated rhTF, and clot time in prothrombin time (PT) assay, human plasma, 10 nM lipidated rhTF, without antibody (0 nM) values, retold here.

The target in test [1] is E. coli produced recombinant human tissue factor rhTF243, purified and lipidated (human) (UniProt P13726). As to the kind of experiment: cell-based or functional assay.
For test [2], the target named is lettuce-produced recombinant human tissue factor, full length (263 aa), purified and lipidated (human) (UniProt P13726). As to the kind of experiment: cell-based or functional assay.

B1: Sunol-cH36 (antibody, from another filing, V domains shown)
VH: EIQLQQSGPELVKPGASVQVSCKTSGYSFTDYNVYWVRQSHGKSLEWIGYIDPYNGITIYDQNFKGKATLTVDKSSTTAFMHLNSLTSDDSAVYFCARDVTTALDFWGQGTTLTVSS
VL: DIQMTQSPASQSASLGESVTITCLASQTIDTWLAWYQQKPGKSPQLLIYAATNLADGVPSRFSGSGSGTKFSFKISSLQAEDFVNYYCQQVYSSPFTFGAGTKLELK
Turning to B1, in test [1], the clot time in prothrombin time (PT) assay, human plasma, 10 nM lipidated rhTF, at antibody concentration of 500 nM turned out to be 48 s and the clot time in prothrombin time (PT) assay, human plasma, 10 nM lipidated rhTF, without antibody (0 nM) worked out at 25 s. In test [2], the clot time in prothrombin time (PT) assay, human plasma, 10 nM lipidated rhTF, at antibody concentration of 500 nM turned out to be 42 s and the clot time in prothrombin time (PT) assay, human plasma, 10 nM lipidated rhTF, without antibody (0 nM) was determined as 25 s.
